Values joined by “and” are separate entries in the source; they are usually repeats but may differ in a detail not shown here. Equal values may be shown once.
Tests used:
[1] = Kinetic data for the reduced coenzyme NADH (reduction of acetophenone); format: biochemical, Lactobacillus brevis
Procedure: (§1) In this N-terminal sequence certain basicity-relevant amino acids were exchanged by established genetic engineering devices and the changes in the acceptance of NAD^+ were determined basically with two values, the KM value and the kcat value. The KM value (Michaelis-Menten-constant [Mol/L]) can be considered to be a measure for the affinity of the co-enzyme to the enzyme. Preferably, the KM value is as small as possible. The kcat value (Mol formed product/mol enzyme×sec) is a measure for the conversion, it should be as high as possible. A combined value, which takes both values into consideration is the quotient kcat/KM. This should be preferably≧20 for obtaining an enzyme suitable for preparative purposes.
(§2) The successive changes of the mutated enzymes were proven by the determination of the kinetic parameters for the co-enzyme NAD^+, NAPD^+, NADH and NADPH by means of the corresponding kinetic parameters for the ketone substrate (acetophenone) or, respectively, by the oxidation reaction for the alcohol (phenylethanol). Furthermore, maintenance of the enantioselectivety was examined using the example of reduction of acetophenon. In addition, temperature-optima and stability, pH optima and stability and the iso-electric point were determined and compared with the corresponding data for the non-mutated wild-type enzyme.

[2] = Kinetic data for the oxidized coenzyme NAD+ (oxidation of phenylethanol); format: biochemical, Lactobacillus brevis; conditions: for Kcat value / Km: coenzyme NAD+
Procedure: as §1, §2

[3] = Isoelectric point by isoelectric focussing; format: physicochemical, Lactobacillus brevis; conditions: pH
Procedure: The isoelectric point (IP) is determined by isoelectric focussing (IEF) to be at pH 4.28. This is noteworthy particularly in comparison with the mutant 2 (see example 4). With the mutant 2, the IP is determined at 4.65 despite the fact that, in each of the two mutants, the same type of aminoacid (lysine) was exchanged; in mutant 1, it was the lysine-45 (to isoleucine) and in mutant 2, it was the lysine-48 (to methionine).

[4] = Temperature stability (residual activity after incubation at various temperatures); format: physicochemical, Lactobacillus brevis
[5] = Kinetic data for the oxidized coenzyme NADP+ (oxidation of phenylethanol); format: biochemical, Lactobacillus brevis
Procedure: as §1, §2

[6] = Kinetic data for the reduced coenzyme NADPH (reduction of acetophenone); format: biochemical, Lactobacillus brevis
Procedure: as §1, §2

[7] = Batchwise reduction of acetophenone with coenzyme regeneration, enantioselectivity by gas chromatography; format: biochemical, Lactobacillus brevis
Procedure: In this case, 960 μl triethanolamine buffer, 50 mM, pH 7.0 with 11 mM acetophenon, 10 μl magnesium chloride (100 mM start solution); 25 μl NADP^+ (10 mM start solution), 9.4μl isopropanol, and 1 U alcohol dehydrogenase were used.

[8] = Standard enzyme test with crude extract (acetophenone reduction / phenyl ethanol oxidation); format: biochemical, Lactobacillus brevis
Procedure: In the standard enzyme test for reduction of acetophenone, with NADPH 0.032 U/mg (0.318 U/ml, 9.75 mg protein/ml) and with NADH 0.47 U/mg (4.61 U/ml; 9.75 mg protein/ml) were measured. In the reverse reaction (alcohol-oxidation) with phenyl ethanol, with NAD^+ a specific activity of 1.1 U/mg (10.8 U/ml); 9.75 protein/ml) were measured.

[9] = Temperature optimum of enzyme activity; format: biochemical, Lactobacillus brevis
Procedure: The optimal temperature was determined for reductive reactions at pH 7.0 with the two coenzymes NADH and NADPH to be 55° C. in both cases. The temperature stability was determined as residual activity after 25 h incubation at various temperatures. At 37° C., still 95% reactivity was obtained; at 42° C. still 34%.

[10] = pH optimum of enzyme activity; format: biochemical, Lactobacillus brevis; conditions: for activity at pH 8.0 compared with optimum: oxidative direction
Procedure: For determining the optimal pH value, the following buffers were used: pH 4.5=Na-acetate; pH 5.0 and 5.5=Na-acetate; pH 6.0 and 6.5=Kpi or MES; pH 7.0 and 7.5=Kpi or TEA; pH 8.0 and 8.6=Tris; pH 9.0=Bicine. All buffers were used in a concentration of 100 mM. For the determination of the reductive reaction 10 mM acetophenon was added. The concentrations of NADP/NAD were each 2 mM. The concentration of NADH/NADPH was each 0.25 mM. For measurement, 970 μl of the respective buffer solution, which already included substrate at the desired concentration, was mixed with 20 μl of the start solution with the desired co-enzyme. The reaction was started with 10 μl enzyme. the dilution factor depended on the activity, it was chosen in the range of 1 to 3 U/ml.

[11] = pH stability (residual activity after incubation at various pH values); format: physicochemical, Lactobacillus brevis
Procedure: The pH stability is expressed as residual activity after a 25 hour incubation period at various pH values, the same buffers were used as for the determination of the pH optima. 45 μl of the respective buffer were mixed with 5 μl of the enzyme solution and incubated at room temperature. Samples were taken after 30 min, 60 min., 6 hours and 25 hours.

[12] = oxidation of phenyl ethanol with NAD+
[13] = reduction of acetophenone with NADH
[14] = reduction of acetophenone with NADPH

Q: With “mutant 1/1: L. brevis ADH mutant with exchanges A9G, R38L, K45M (SEQ ID NO 17) (SNRLDGKVGIITGGTLGIGLAIATKFVEEGAKVMITGLHSDVGEMAAKSV; OTHER INFORMATION: mutant 1/1)” as the substance, how does the Kcat value [1] read?
A: 10.3 s⁻¹

Q: And the Km [1]?
A: 188 µM

Q: What about the Kcat value [2] of the same substance?
A: 33.3 s⁻¹

Q: What about the Km [2] of the same substance?
A: 500 µM and 502 µM

Q: What about the “selectivity (kcat/KM) for NAD+ in comparison with the value for NADP+” value ([2]; kcat/KM NAD+ as percent of kcat/KM NADP+) of the same substance?
A: 100%

Q: And the isoelectric point [3]?
A: 4.85

Q: And the residual activity ([4]; 25 h incubation at 25° C.)?
A: 100%

Q: What about the residual activity ([4]; 25 h incubation at 30° C.) of the same substance?
A: 59%

Q: And the Kcat value [5]?
A: 33.3 s⁻¹

Q: What about the Km [5] of the same substance?
A: 502 µM

Q: What about the Kcat value [6] of the same substance?
A: 166.4 s⁻¹

Q: And the Km [6]?
A: 352 µM

Q: And the “enantioselectivity: isomer of phenylethanol formed” value [7]?
A: only the (R) isomere of phenyl ethanol

Q: For “mutant 2/3: L. brevis ADH mutant with exchanges A9G, G37D, R38L, K48M (SEQ ID NO 20)”, which activity [8, 12] is on record?
A: 10.8 U/ml

Q: What about the specific activity [8, 12] of the same substance?
A: 1.1 U/mg

Q: And the activity ([8]; oxidation of phenyl ethanol with NADP+)?
A: no activity

Q: And the activity [8, 13]?
A: 4.61 U/ml

Q: What about the specific activity [8, 13] of the same substance?
A: 0.47 U/mg

Q: And the activity [8, 14]?
A: 0.318 U/ml

Q: What about the specific activity [8, 14] of the same substance?
A: 0.032 U/mg

Q: Which Kcat value [1] does the source give for “mutant 2/2: L. brevis ADH mutant with exchanges A9G, R38L, H39L, K48M (SEQ ID NO 19) (SNRLDGKVGIITGGTLGIGLAIATKFVEEGAKVMITGLLSDVGEKAAMSV; OTHER INFORMATION: mutant 2/2)” here?
A: 33.6 s⁻¹

Q: And the Km [1]?
A: ~70 µM and 70 µM

Q: What about the “activity at 60° C. relative to optimum” value ([9]; NADH, 60° C.) of the same substance?
A: 70%

Q: And the “activity at 50° C. relative to optimum” value ([9]; NADPH, measured at 50° C.)?
A: 95%

Q: What about the Kcat value [2] of the same substance?
A: 23.2 s⁻¹

Q: And the Km [2]?
A: 960 µM and 955 µM

Q: What about the isoelectric point [3] of the same substance?
A: about 4.47

Q: And the residual activity ([4]; storage 6 h at 30° C.)?
A: 67%

Q: What about the residual activity ([4]; storage 6 h at 37° C.) of the same substance?
A: 7%

Q: What about the Kcat value [5] of the same substance?
A: 30.8 s⁻¹

Q: And the Km [5]?
A: 143 µM

Q: And the “activity at pH 8.0 compared with optimum” value ([10]; NAD+)?
A: 61%

Q: And the “activity at pH 8.0 compared with optimum” value ([10]; NADP+)?
A: 77%

Q: And the “activity at pH 7.0 compared with optimum” value ([10]; reduction of acetophenone with NADH, pH 7.0)?
A: 6%

Q: What about the Kcat value [6] of the same substance?
A: 101.1 s⁻¹

Q: And the Km [6]?
A: 370 µM

Q: And the residual activity ([11]; 6 h storage at pH 7.0)?
A: 100%

Q: And the residual activity ([11]; 6 h storage at pH 8.5)?
A: 58%

Q: What about the “enantioselectivity: isomer of phenylethanol formed” value [7] of the same substance?
A: the (R) isomere of phenylethanol only
